Source: the FLAb antibody collection (doi:10.7554/elife.23156)

B1: scFv; the commonest letter at each place (parent)
chain 1: EVKLDETGGGLVQPGRPMKLSCVASGFTFSDYWMNWVRQSPEKGLEWVAQIRNKPYNYETYYSDSVKGRFTISRDDSKSSVYLQMNNLRVEDMGIYYCTGSYYGMDYWGQGTSVTVS
chain 2: DVVMTQTPLSLPVSLGDQASISCRSSQSLVHSNGNTYLRWYLQKPGQSPKVLIYKVSNRFSGVPDRFSGSGSGTDFTLKISRVEAEDLGVYFCSQSTHVPWTFGGGTKLEIK

Experiments:
fluorescein = variants of: B1; assay: Kd (Tite-Seq); settings: with fluorescein; format: scFv 4-4-20, heavy + light
[1] = variants of: B1; assay: yeast surface expression (ratio to wild type); higher = more expressed; settings: format: scFv 4-4-20, heavy + light

Kd (fluorescein) | Variant | yeast surface expression [1]
≥ 10 µM | chain 1 EVKLDETGGGLVQPGRPMKLSCVASGFTFSDYWWMWVRQSPEKGLEWVAQIRNKPYNYETYYSDSVKGRFTISRDDSKSSVYLQMNNLRVEDMGIYYCTGSYYGMDYWGQGTSVTVS chain 2 DVVMTQTPLSLPVSLGDQASISCRSSQSLVHSNGNTYLRWYLQKPGQSPKVLIYKVSNRFSGVPDRFSGSGSGTDFTLKISRVEAEDLGVYFCSQSTHVPWTFGGGTKLEIK [chain 1 M34W N35M] | 0.653
≥ 10 µM | chain 1 EVKLDETGGGLVQPGRPMKLSCVASGFTASDYWMNSVRQSPEKGLEWVAQIRNKPYNYETYYSDSVKGRFTISRDDSKSSVYLQMNNLRVEDMGIYYCTGSYYGMDYWGQGTSVTVS chain 2 DVVMTQTPLSLPVSLGDQASISCRSSQSLVHSNGNTYLRWYLQKPGQSPKVLIYKVSNRFSGVPDRFSGSGSGTDFTLKISRVEAEDLGVYFCSQSTHVPWTFGGGTKLEIK [chain 1 F29A W36S] | 0.313
≥ 10 µM | chain 1 EVKLDETGGGLVQPGRPMKLSCVASGFTFSDYWMNWVRQSPEKGLEWVAQIRNKPYNYETYYSDSVKGRFTISRDDSKSSVYLQMNNLRVEDMGIYYCTGNYYGMDYPGQGTSVTVS chain 2 DVVMTQTPLSLPVSLGDQASISCRSSQSLVHSNGNTYLRWYLQKPGQSPKVLIYKVSNRFSGVPDRFSGSGSGTDFTLKISRVEAEDLGVYFCSQSTHVPWTFGGGTKLEIK [chain 1 S101N W108P] | 0.506

Continued, variant first:

Variant | Kd (fluorescein) | yeast surface expression [1]
chain 1 EVKLDETGGGLVQPGRPMKLSCVASGFTFSDYWMNGVRQSPEKGLEWVAQIRNKPYNYETYYSDSVKGRFTISRDDSKSSVYLQMNNLRVEDMGIYYCTGSYYGMDYWGQGTSVTVS chain 2 DVVMTQTPLSLPVSLGDQASISCRSSQSLVHSNGNTYLRWYLQKPGQSPKVLIYKVSNRFSGVPDRFSGSGSGTDFTLKISRVEAEDLGVYFCSQSTHVPWTFGGGTKLEIK [chain 1 W36G] | ≥ 10 µM | 0.534
chain 1 EVKLDETGGGLVQPGRPMKLSCVASGFTFSDYWMNWVRQSPEKGLEWVAQIRNKPYNYETYYSDSVKGRFTISRDDSKSSVYLQMNNLRVEDMGIYYCTGGLYGMDYWGQGTSVTVS chain 2 DVVMTQTPLSLPVSLGDQASISCRSSQSLVHSNGNTYLRWYLQKPGQSPKVLIYKVSNRFSGVPDRFSGSGSGTDFTLKISRVEAEDLGVYFCSQSTHVPWTFGGGTKLEIK [chain 1 S101G Y102L] | ≥ 10 µM | 1.06
chain 1 EVKLDETGGGLVQPGRPMKLSCVASGFTFSDYWMNWVRQSPEKGLEWVAQIRNKPYNYETYYSDSVKGRFTISRDDSKSSVYLQMNNLRVEDMGIYYCTGSYDGMDYWRQGTSVTVS chain 2 DVVMTQTPLSLPVSLGDQASISCRSSQSLVHSNGNTYLRWYLQKPGQSPKVLIYKVSNRFSGVPDRFSGSGSGTDFTLKISRVEAEDLGVYFCSQSTHVPWTFGGGTKLEIK [chain 1 Y103D G109R] | ≥ 10 µM | 0.269
